In patent CN114106174A (SUZHOU SCENE MEDICAL SCIENCE AND TECH LIMITED COMPANY, dated 2022):

T1: OX40 on OX40-overexpressing cells (OX40过表达细胞表面OX40) (UniProt P43489 29-277, limits assumed)
T1 construct: whole, on cells; The cell line and the construct of the overexpressing cells are not described; also called CD134; TNFRSF4
T1 sequence (looked up): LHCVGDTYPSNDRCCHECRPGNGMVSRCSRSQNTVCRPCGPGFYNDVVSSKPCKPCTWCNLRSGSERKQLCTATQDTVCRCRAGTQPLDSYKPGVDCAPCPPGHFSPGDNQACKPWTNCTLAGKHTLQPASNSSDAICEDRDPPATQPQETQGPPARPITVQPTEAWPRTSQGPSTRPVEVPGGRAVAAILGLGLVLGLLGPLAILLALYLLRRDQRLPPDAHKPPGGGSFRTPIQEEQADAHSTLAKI


Biological target: T1, OX40 on OX40-overexpressing cells …
Assay: flow cytometry, hybridoma supernatant on OX40-overexpressing cells, goat anti-mouse IgG-PE

Y586通道PE荧光值 | Binder
344000 | 24E10-4 (antibody, V domains shown) VH: QVQMQESGPGLVKPSGTLSLTCAVSGGSISSSKWWSWVRQPPGKGLEWIGEIYHSGSTNYNPSLKSRVTISIDKSKNQFSLRLTSVTAADTAVYYCARGDVLLWFGGQGTLVTVSS VL: EIVLTQSPGTLSLSPGERATLSCWASQSVSSTYLAWYQQKPGQAPRLLIYGASIRATGIPDRFSGSGSGTDFTLTISSLEPEDFAVYYCQQYGSSPITFGQGTRLEIKR
208000 | 30B1-3 (antibody, V domains shown) VH: not shown VL: EIVLTQSPGTLSLSPGERATFSCRASQSVSGSYLAWYQQKPGQAPRLLIHGASSRATGIPDRFSGSGSGTDFTLTISRLEPEDFAVYYCLQYGSSPLTFGGGTKVEIKR
479000 | 55H6-6 (antibody, V domains shown) VH: QVQLVQSGAEVKKPGASVKVSCKASGYTFTSYGISWVRQAPGQGLEWMGWISAYNGHTNYAQKLQGRVTMTTDTSTNTAYMELWSLRSDDTAVYYCTSDYGDYWGQGTLVTVSS VL: DVVVTQSPLSLPVTLGQPASISCRSSQSLVYSDGNTNLYWFQQRPGQSPRRLIYQVSNRDSGVPDRFSGSGSGTDFTLKISRVEAEDVGVYYCMQGTHWPPALTFGGGTEVEIKR
181000 | 15A7-6 (antibody, V domains shown) VH: QVQLQESGPGLVKPSGTLSLTCAVSGGSINSSSWWSWVRQPPGKGLEWIGEIYHSGDTNYNPSLKSRVAISVDKSKNQFSLKLSSVTAADTAVYYCARDQADYFGSGNYVYWGQGTLVTVSS VL: EIVLMQYPGTLSLSSGERRVLSCRPSQSVSSSYLAWYQQKPGQAPRLLIYGASSRASGIPDRFSGSGSGTDFTLTISRLEPEDFAVYYCQQYGSLPITFGQGTRVEIKR
